In the supplement of paper PMC11316812:
± gives the standard deviation of the averaged measurements.

What was measured:
hTERT-HMEC = test: percentage of EdU-negative (G0-arrested) nuclei per well, 72 h; higher = more G0 arrest; details: reference: sequence is the full UniProt precursor, the tested protein was the secreted form or ectodomain
MCF7 = test: as above; details: reference: sequence is the full UniProt precursor, the tested protein was the secreted form or ectodomain
[1] = protein concentration 0.0128525 µM
[2] = protein concentration 0.128525 µM
[3] = protein concentration 0.0225 µM
[4] = protein concentration 0.03123 µM
[5] = protein concentration 0.3123 µM
[6] = protein concentration 0.0133825 µM
[7] = protein concentration 0.133825 µM
[8] = protein concentration 0.0173575 µM
[9] = protein concentration 0.173575 µM
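Also: secreted proteins added to cultured cells, EdU pulse at the end, nuclei found by Hoechst imaging, EdU status from nuclear versus surrounding ring intensity ratio, PBS as neutral control.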

Row | Substance | percentage of EdU-negative (hTERT-HMEC; [3]) [%] | percentage of EdU-negative (hTERT-HMEC; protein concentration 0.225 µM) [%] | percentage of EdU-negative (MCF7; [3]) [%] | percentage of EdU-negative (MCF7; protein concentration 0.225 µM) [%] | also measured
1 | MAPRRVRSFLRGLPALLLLLLFLGPWPAASHGGKYSREKNQPKPSPKRESGEEFRMEKLNQLWEKAQRLHLPPVRLAELHADLKIQERDELAWKKLKLDGLDEDGEKEARLIRNLNVILAKYGLDGKKDARQVTSNSLSGTQEDGLDDPRLEKLWHKAKTSGKFSGEELDKLWREFLHHKEKVHEYNVLLETLSRTEEIHENVISPSDLSDIKGSVLHSRHTELKEKLRSINQGLDRLRRVSHQGYSTEAEFEEPRVIDLWDLAQSANLTDKELEAFREELKHFEAKIEKHNHYQKQLEIAHEKLRHAESVGDGERVSRSREKHALLEGRTKELGYTVKKHLQDLSGRISRARHNEL |  |  |  |  | percentage of EdU-negative (hTERT-HMEC; [1]): 4.97 ± 0.51%; percentage of EdU-negative (hTERT-HMEC; [2]): 6.45 ± 0.82%; percentage of EdU-negative (MCF7; [1]): 24.3 ± 0.53%; percentage of EdU-negative (MCF7; [2]): 26.4 ± 1.4%
2 | MWLLLTLSFLLASTAAQDGDKLLEGDECAPHSQPWQVALYERGRFNCGASLISPHWVLSAAHCQSRFMRVRLGEHNLRKRDGPEQLRTTSRVIPHPRYEARSHRNDIMLLRLVQPARLNPQVRPAVLPTRCPHPGEACVVSGWGLVSHNEPGTAGSPRSQVSLPDTLHCANISIISDTSCDKSYPGRLTNTMVCAGAEGRGAESCEGDSGGPLVCGGILQGIVSWGDVPCDNTTKPGVYTKVCHYLEWIRETMKRN [Q9H2R5] | 5.58 ± 0.041 | 5.86 ± 1.2 | 22.4 ± 2 | 25.76 ± 0.13 | 
3 | MGSGRRALSAVPAVLLVLTLPGLPVWAQNDTEPIVLEGKCLVVCDSNPATDSKGSSSSPLGISVRAANSKVAFSAVRSTNHEPSEMSNKTRIIYFDQILVNVGNFFTLESVFVAPRKGIYSFSFHVIKVYQSQTIQVNLMLNGKPVISAFAGDKDVTREAATNGVLLYLDKEDKVYLKLEKGNLVGGWQYSTFSGFLVFPL [Q9NTU7] | 5.12 ± 0.27 | 4.5 ± 0.36 | 23.4 ± 2 | 25.2 ± 2.2 | 
4 | Q9NQS3 | 4.83 ± 1.2 | 4.728 ± 0.0098 | 25.9 ± 3.8 | 26.1 ± 2.9 | 
5 | MWVPVVFLTLSVTWIGAAPLILSRIVGGWECEKHSQPWQVLVASRGRAVCGGVLVHPQWVLTAAHCIRNKSVILLGRHSLFHPEDTGQVFQVSHSFPHPLYDMSLLKNRFLRPGDDSSHDLMLLRLSEPAELTDAVKVMDLPTQEPALGTTCYASGWGSIEPEEFLTPKKLQCVDLHVISNDVCAQVHPQKVTKFMLCAGRWTGGKSTCSGDSGGPLVCNGVLQGITSWGSEPCALPERPSLYTKVVHYRKWIKDTIVANP | 4.97 ± 0.14 | 5.29 ± 0.6 | 26.3 ± 1.2 | 25 ± 2 | percentage of EdU-negative (hTERT-HMEC; [4]): 4.99 ± 0.4%; percentage of EdU-negative (hTERT-HMEC; [5]): 6.47 ± 0.73%; percentage of EdU-negative (MCF7; [4]): 27.3 ± 0.96%; percentage of EdU-negative (MCF7; [5]): 26.3 ± 0.32%
6 | MQPTGREGSRALSRRYLRRLLLLLLLLLLRQPVTRAETTPGAPRALSTLGSPSLFTTPGVPSALTTPGLTTPGTPKTLDLRGRAQALMRSFPLVDGHNDLPQVLRQRYKNVLQDVNLRNFSHGQTSLDRLRDGLVGAQFWSASVSCQSQDQTAVRLALEQIDLIHRMCASYSELELVTSAEGLNSSQKLACLIGVEGGHSLDSSLSVLRSFYVLGVRYLTLTFTCSTPWAESSTKFRHHMYTNVSGLTSFGEKVVEELNRLGMMIDLSYASDTLIRRVLEVSQAPVIFSHSAARAVCDNLLNVPDDILQLLKKNGGIVMVTLSMGVLQCNLLANVSTVADHFDHIRAVIGSEFIGIGGNYDGTGRFPQGLEDVSTYPVLIEELLSRSWSEEELQGVLRGNLLRVFRQVEKVREESRAQSPVEAEFPYGQLSTSCHSHLVPQNGHQATHLEVTKQPTNRVPWRSSNASPYLVPGLVAAATIPTFTQWLC [Q9H4B8] | 5.33 ± 1.2 | 5.49 ± 1.1 | 26.5 ± 1.8 | 27.6 ± 3 | 
7 | MGPLSAPPCTQHITWKGLLLTASLLNFWNLPTTAQVIIEAKPPKVSEGKDVLLLVHNLPQNLTGYIWYKGQMTDLYHYITSYVVHGQIIYGPAYSGRETVYSNASLLIQNVTQEDAGSYTLHIIKRGDGTGGVTGYFTVTLYSETPKPSISSSNLNPREVMEAVRLICDPETPDASYLWLLNGQNLPMTHRLQLSKTNRTLYLFGVTKYIAGPYECEIRNPVSASRSDPVTLNLLPKLPMPYITINNLNPREKKDVLAFTCEPKSRNYTYIWWLNGQSLPVSPRVKRPIENRILILPSVTRNETGPYQCEIRDRYGGIRSNPVTLNVLYGPDLPRIYPSFTYYRSGENLDLSCFADSNPPAEYSWTINGKFQLSGQKLFIPQITTNHSGLYACSVRNSATGKEISKSMIVKVSETASPQVTYAGPNTWFQEILLL |  |  |  |  | percentage of EdU-negative (hTERT-HMEC; [6]): 4.917 ± 0.044%; percentage of EdU-negative (hTERT-HMEC; [7]): 5.76 ± 1.7%; percentage of EdU-negative (MCF7; [6]): 24.7 ± 1.5%; percentage of EdU-negative (MCF7; [7]): 27.3 ± 1.4%
8 | MPGGCSRGPAAGDGRLRLARLALVLLGWVSSSSPTSSASSFSSSAPFLASAVSAQPPLPDQCPALCECSEAARTVKCVNRNLTEVPTDLPAYVRNLFLTGNQLAVLPAGAFARRPPLAELAALNLSGSRLDEVRAGAFEHLPSLRQLDLSHNPLADLSPFAFSGSNASVSAPSPLVELILNHIVPPEDERQNRSFEGMVVAALLAGRALQGLRRLELASNHFLYLPRDVLAQLPSLRHLDLSNNSLVSLTYVSFRNLTHLESLHLEDNALKVLHNGTLAELQGLPHIRVFLDNNPWVCDCHMADMVTWLKETEVVQGKDRLTCAYPEKMRNRVLLELNSADLDCDPILPPSLQTSYVFLGIVLALIGAIFLLVLYLNRKGIKKWMHNIRDACRDHMEGYHYRYEINADPRLTNLSSNSDV | 4.65 ± 0.22 | 6.38 ± 0.11 | 25.8 ± 1.4 | 27.9 ± 0.44 | 
9 | MRAAPLLLARAASLSLGFLFLLFFWLDRSVLAKELKFVTLVFRHGDRSPIDTFPTDPIKESSWPQGFGQLTQLGMEQHYELGEYIRKRYRKFLNESYKHEQVYIRSTDVDRTLMSAMTNLAALFPPEGVSIWNPILLWQPIPVHTVPLSEDQLLYLPFRNCPRFQELESETLKSEEFQKRLHPYKDFIATLGKLSGLHGQDLFGIWSKVYDPLYCESVHNFTLPSWATEDTMTKLRELSELSLLSLYGIHKQKEKSRLQGGVLVNEILNHMKRATQIPSYKKLIMYSAHDTTVSGLQMALDVYNGLLPPYASCHLTELYFEKGEYFVEMYYRNETQHEPYPLMLPGCSPSCPLERFAELVGPVIPQDWSTECMTTNSHQGTEDSTD |  |  |  |  | percentage of EdU-negative (hTERT-HMEC; [8]): 5.15 ± 0.62%; percentage of EdU-negative (hTERT-HMEC; [9]): 5.55 ± 0.26%; percentage of EdU-negative (MCF7; [8]): 26.5 ± 0.46%; percentage of EdU-negative (MCF7; [9]): 27.8 ± 1.6%
10 | MALTAHPSCLLALLVAGLAQGIRGPLRAQDLGPQPLELKEAFKLFQIQFNRSYLSPEEHAHRLDIFAHNLAQAQRLQEEDLGTAEFGVTPFSDLTEEEFGQLYGYRRAAGGVPSMGREIRSEEPEESVPFSCDWRKVASAISPIKDQKNCNCCWAMAAAGNIETLWRISFWDFVDVSVQELLDCGRCGDGCHGGFVWDAFITVLNNSGLASEKDYPFQGKVRAHRCHPKKYQKVAWIQDFIMLQNNEHRIAQYLATYGPITVTINMKPLQLYRKGVIKATPTTCDPQLVDHSVLLVGFGSVKSEEGIWAETVSSQSQPQPPHPTPYWILKNSWGAQWGEKGYFRLHRGSNTCGITKFPLTARVQKPDMKPRVSCPP | 4.63 ± 1.3 | 48.2 ± 4 | 23.2 ± 3.5 | 32.1 ± 4.7 | 
11 | MAFRGWRPPPPPLLLLLLWVTGQAAPVAGLGSDAELQIERRFVPDECPRTVRSGDFVRYHYVGTFPDGQKFDSSYDRDSTFNVFVGKGQLITGMDQALVGMCVNERRFVKIPPKLAYGNEGVSGVIPPNSVLHFDVLLMDIWNSEDQVQIHTYFKPPSCPRTIQVSDFVRYHYNGTFLDGTLFDSSHNRMKTYDTYVGIGWLIPGMDKGLLGMCVGEKRIITIPPFLAYGEDGDGKDIPGQASLVFDVALLDLHNPKDSISIENKVVPENCERISQSGDFLRYHYNGTLLDGTLFDSSYSRNRTFDTYIGQGYVIPGMDEGLLGVCIGEKRRIVVPPHLGYGEEGRGNIPGSAVLVFDIHVIDFHNPSDSISITSHYKPPDCSVLSKKGDYLKYHYNASLLDGTLLDSTWNLGKTYNIVLGSGQVVLGMDMGLREMCVGEKRTVIIPPHLGYGEAGVDGEVPGSAVLVFDIELLELVAGLPEGYMFIWNGEVSPNLFEEIDKDGNGEVLLEEFSEYIHAQVASGKGKLAPGFDAELIVKNMFTNQDRNGDGKVTAEEFKLKDQEAKHDEL | 5.15 ± 0.31 | 25.4 ± 1.1 | 29.6 ± 1.2 | 28.6 ± 3 | 
12 | MRLPRRAALGLLPLLLLLPPAPEAAKKPTPCHRCRGLVDKFNQGMVDTAKKNFGGGNTAWEEKTLSKYESSEIRLLEILEGLCESSDFECNQMLEAQEEHLEAWWLQLKSEYPDLFEWFCVKTLKVCCSPGTYGPDCLACQGGSQRPCSGNGHCSGDGSRQGDGSCRCHMGYQGPLCTDCMDGYFSSLRNETHSICTACDESCKTCSGLTNRDCGECEVGWVLDEGACVDVDECAAEPPPCSAAQFCKNANGSYTCEECDSSCVGCTGEGPGNCKECISGYAREHGQCADVDECSLAEKTCVRKNENCYNTPGSYVCVCPDGFEETEDACVPPAEAEATEGESPTQLPSREDL [Q6UXH1] | 4.4 ± 0.85 | 6.12 ± 0.13 | 23.9 ± 1.1 | 26 ± 1.1 | 
